# Where “and” joins values, the source holds several entries; their conditions need not be identical. Equal entries are not always repeated.
# B1: Lysozyme C, milk isozyme wild type, P81708 (protein)
# chain: KIFSKCELARKLKSMGMDGFHGYSLANWVCMAEYESNFNTQAFNGRNSNGSSDYGIFQLNSKWWCKSNSHSSANACNIMCSKFLDDNIDDDIACAKRVVKDPNGMSAWVAWVKHCKGKDLSKYLASCNL
# Conditions: Canis lupus familiaris, Thermal, DSC, reversible: yes, whole UniProt chain shown
# [1] = pH 1.95, glycine hydrochloride 50 mM, transition: 3
# [2] = pH 4.5, 66.4 °C, sodium acetate 50 mM
protein,measurement,setting,value
B1,Tm,[1],60 °C
same,unfolding enthalpy (calorimetric),[1],29.6 kcal/mol
same,unfolding enthalpy (calorimetric),"pH 2.74, glycine hydrochloride 50 mM, transition: 3",21.3 kcal/mol and 37.8 kcal/mol
same,unfolding enthalpy (calorimetric),"pH 3, glycine hydrochloride 50 mM, transition: 3",31.8 kcal/mol and 36.9 kcal/mol
same,unfolding enthalpy (calorimetric),"pH 3.24, glycine hydrochloride 50 mM, transition: 3",35.6 kcal/mol and 43 kcal/mol
same,unfolding enthalpy (calorimetric),"pH 3.46, glycine hydrochloride 50 mM, transition: 3",37.7 kcal/mol and 42 kcal/mol
same,unfolding enthalpy (calorimetric),[2],30.9 kcal/mol
same,unfolding free energy,[2],2.15 kcal/mol
same,unfolding enthalpy (calorimetric),"pH 4.5, sodium acetate 50 mM, CaCl2 10 mM, transition: 3",67.4 kcal/mol and 44.4 kcal/mol
same,unfolding enthalpy (calorimetric),"pH 4.5, sodium acetate 50 mM, transition: 3",42.1 kcal/mol and 44.4 kcal/mol
